Measured values from US20140271478A1 (University of California, published 2014).
Substitutions are numbered along the chain they refer to.

T1: human integrin β8 swap construct RKMALY (SEQ ID NO:129) (human, UniProt P26012 43-769)
T1 sequence: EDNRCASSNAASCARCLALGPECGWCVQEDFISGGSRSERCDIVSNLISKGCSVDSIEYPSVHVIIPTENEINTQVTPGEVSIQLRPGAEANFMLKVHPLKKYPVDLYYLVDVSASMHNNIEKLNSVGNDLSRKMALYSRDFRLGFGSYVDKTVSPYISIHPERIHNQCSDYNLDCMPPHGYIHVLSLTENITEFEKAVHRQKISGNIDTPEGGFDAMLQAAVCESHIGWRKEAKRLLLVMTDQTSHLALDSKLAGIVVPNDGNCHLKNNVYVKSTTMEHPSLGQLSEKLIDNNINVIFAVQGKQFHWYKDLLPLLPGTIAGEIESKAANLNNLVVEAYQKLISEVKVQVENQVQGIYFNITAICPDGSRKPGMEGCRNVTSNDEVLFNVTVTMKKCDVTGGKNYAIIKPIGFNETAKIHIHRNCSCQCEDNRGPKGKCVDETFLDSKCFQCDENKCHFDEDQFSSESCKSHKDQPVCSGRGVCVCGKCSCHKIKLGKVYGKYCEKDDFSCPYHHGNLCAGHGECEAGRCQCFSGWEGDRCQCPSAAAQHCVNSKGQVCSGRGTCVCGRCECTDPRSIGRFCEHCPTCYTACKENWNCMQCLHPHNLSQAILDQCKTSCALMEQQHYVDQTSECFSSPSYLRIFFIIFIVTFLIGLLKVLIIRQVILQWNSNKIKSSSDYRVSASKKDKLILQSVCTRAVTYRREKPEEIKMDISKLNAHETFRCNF

T2: human integrin β8 swap construct KKMAFF (SEQ ID NO:133) (human, UniProt P26012 43-769)
T2 sequence: T1 sequence with R133K, L137F, Y138F

T3: human integrin β8 swap construct RKMAFY (SEQ ID NO:130) (human, UniProt P26012 43-769)
T3 sequence: T1 sequence with L137F

T4: human integrin β8 swap construct KKMAFY (SEQ ID NO:131) (human, UniProt P26012 43-769)
T4 sequence: T1 sequence with R133K, L137F

B1: 37E1B5 antibody (antibody, V domains shown)
VH: EVQLVESGGGLVQPGGSLNLSCAVSGFVFSRYWMSWVRQAPGKGLEWIGEINPDSSTINYTSSLKDKFIISRDNAKNTLYLQMNKVRSEDTALYYCACLITTEDYWGQGTSVTVSS
VL: QIVLTQSPSSMYASLGERVTIPCKASQDINSYLSWFQQKPGKSPKTLIYYANRLVDGVPSRFSGSGSGQDYSLTISSLEYEDMGIYYCLQYDEFPYTFGGGTKLEIK
B2: 14E5 antibody (antibody, V domains shown)
VH: EVQLQQSGAELMKPGASVKISCKATGYTFSTYWIEWIKQRPGHGLEWIGHILPGSVITNYNEKFKGKAAITADTSSNTSYMQLSSLTSEDSAVYYCARWGWDSYWGQGTLVTVSS
VL: DIEMTQSPSSLSASLGDRVTISCSTSQDISSSLNWYQQKPDGTVTLLIYYTSNLHSGVPSRFSGSGSGTDYSLTISNLEPEDIATYYCQQYSKLPYTFGGGTKLEIKR
notes: Mouse hybridoma antibody; also called hybridoma clone 14E5
B3: 11E8 antibody (antibody, V domains shown)
VH: EVQLQQSGPELMKTGASVKISCKATGYTFSSYWIEWVKQRPGHGLEWIGDILPGSGTTNYNEKFKGRATVTADRSSNTAYMQLSSLTYGDSAVYYCATWGWDTYWDQGTSVTVSS
VL: B2 VL with E3V, T25A, D28G, S31N, S32Y, T45K, N53S, K93N
notes: Mouse hybridoma antibody

biological target: T1, human integrin β8 swap construct RKMALY …; test: cell staining of β8 amino acid swap constructs (175-180)

Row | % positive [%] | Binder
1 | 14 | B1
2 | 1 | B2
3 | 4 | B3

biological target: T2, human integrin β8 swap construct KKMAFF …; test: as above

Row | % positive [%] | Binder
4 | 116 | B1
5 | 9 | B2
6 | 115 | B3

biological target: T3, human integrin β8 swap construct RKMAFY …; test: as above

Row | % positive [%] | Binder
7 | 89 | B1
8 | 6 | B2
9 | 108 | B3

biological target: T4, human integrin β8 swap construct KKMAFY …; test: as above

Row | % positive [%] | Binder
10 | 3 | B1
11 | 6 | B2
12 | 31 | B3
